Drawing on the RNAGym collection of RNA variant scans (doi:10.1093/molbev/msab373), this text covers reverse-splicing fitness for 84 variants.

First the molecules themselves.
B1: Azoarcus group I ribozyme (parent)
chain: GUGCCUUGCGCCGGGAAACCACGCAAGGGAUGGUGUCAAAUUCGGCGAAACCUAAGCGCCCGCCCGGGCGUAUGGCAACGCCGAGCCAAGCUUCGGCGCCUGCGCCGAUGAAGGUGUAGAGACUAGACGGCACCCACCUAAGGCAAACGCUAUGGUGAAGGCAUAGUCCAGGGAGUGGCGAAAGUCACACAAACCGG

In this data set the parent is B1. Nature of the data set: reverse-splicing fitness (ratio to wild type); higher = more active; in vitro selection; Mg2+ level not given. The procedure, abridged:
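An in vitro group I ribozyme library with randomized positions was T7-transcribed and gel-purified. In triplicate, 10 pmol RNA in EPPS pH 7.5 was reacted with 50 pmoles of a 30-nt RNA substrate for 1 h at 37 °C across several added MgCl2 levels (1–48 mM), then stopped with EDTA. Products were reverse transcribed from a substrate-complementary primer, PCR-amplified and sequenced (HiSeq 4000). Fitness is a variant's read proportion after selection over that before, normalised to wild type.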
With C82A A111G A120G A145U C150A, the reverse-splicing fitness was found to be 0.00927. With C82A A111G A120G A145U C150G, the reverse-splicing fitness was determined as 0.00709. With C82A A111G A120G C169A, the reverse-splicing fitness turned out to be 0.0105. Next, C82A A111G A120G C169G: 0.0125; C82A A111G A120G C169U: 0.0111. Turning to C82A A111G A120C C150U U176G, the reverse-splicing fitness came to 0.01.

Regarding C82A A111G A120C C150U U176A, the reverse-splicing fitness was determined as 0.0143. Regarding C82A A111G A120C C150U U176C, the reverse-splicing fitness came out at 0.0238.

C82A A111G A120G A145C C150A U176A: the reverse-splicing fitness is 0.0107. The value for C82A A111G A120G A145C C150A U176C was 0.00922; that for C82A A111G A120G A145C C150A U176G was 0.00509; that for C82A A111G A120G A145G C150G C169A was 0.00897.

Turning to C82A A111G A120G A145G C150G C169G, the reverse-splicing fitness is 0.00754. The value for C82A A111G A120G A145G C150G C169U was 0.0091; that for C82A A111G A120G A145C C150A C169U U176A was 0.0207; that for C82A A111G A120G A145C C150A C169U U176C was 0.0117.

Regarding C82A A111G A120G A145C C150A C169U U176G, the reverse-splicing fitness came to 0.00484.

In the case of C82A A111G A120G C150G U176A, the reverse-splicing fitness came out at 0.0058. Turning to C82A A111G A120G C150G U176C, the reverse-splicing fitness was 0.00974. For C82A A111G A120G C150G U176G, the reverse-splicing fitness was 0.00346. Turning to C82A A111G A120G A145C C150U C169A U176G, the reverse-splicing fitness amounted to 0.00561.

For the variant C82A A111G A120G A145C C150U C169A U176A, the reverse-splicing fitness worked out at 0.0114. Regarding C82A A111G A120G A145C C150U C169A U176C, the reverse-splicing fitness was determined as 0.00635. Next, C82A A111G A120G A145U C169U U176C: 0.0158; C82A A111G A120G A145U C169U U176G: 0.00416. Next, C82A A111G A120G A145U C169U U176A: 0.0204. As for C82A A111G A120G A145C C150G, the reverse-splicing fitness was 0.00656. The value for C82A A111G A120G A145C C150U was 0.0102; that for C82A A111G A120G A145C C150A was 0.0077; that for C82A A111G A120C C150G C169A U176A was 0.0116. As for C82A A111G A120C C150G C169A U176G, the reverse-splicing fitness came to 0.00791. C82A A111G A120C C150G C169A U176C: the reverse-splicing fitness was found to be 0.0139. The value for C82A A111G A120U A145C C150G C169A U176C was 0.00205. Next, C82A A111G A120U A145C C150G C169A U176A: 0.00214; C82A A111G A120U A145C C150G C169A U176G: 0.00179; C82A A111G A120G C169U U176G: 0.00531. For C82A A111G A120G C169U U176A, the reverse-splicing fitness was 0.0208. Turning to C82A A111G A120G C169U U176C, the reverse-splicing fitness is 0.0183. Consider C82A A111G A120G A145U C150U C169G U176A, for which the reverse-splicing fitness is 0.014. As for C82A A111G A120G A145U C150U C169G U176G, the reverse-splicing fitness stood at 0.00537. Turning to C82A A111G A120G A145U C150U C169G U176C, the reverse-splicing fitness turned out to be 0.0137. Next, C82A A111G A120G A145U C150U U176C: 0.014; C82A A111G A120G A145U C150U U176G: 0.00595.

Take C82A A111G A120G A145U C150U U176A: the reverse-splicing fitness came out at 0.00996. In the case of C82A A111G A120G A145U C169U, the reverse-splicing fitness was 0.00927. Next, C82A A111G A120G A145U C169A: 0.00824.

With C82A A111G A120G A145U C169G, the reverse-splicing fitness was 0.0112. Next, C82A A111G A120G A145C C150G C169G: 0.00751; C82A A111G A120G A145C C150G C169A: 0.00928. Regarding C82A A111G A120G A145C C150G C169U, the reverse-splicing fitness was determined as 0.00786.

In the case of C82A A111G A120U A145C, the reverse-splicing fitness was 0.027.

Consider C82A A111G A120G A145U C169A U176A, for which the reverse-splicing fitness was found to be 0.0117. The value for C82A A111G A120G A145U C169A U176G was 0.0046. For the variant C82A A111G A120G A145U C169A U176C, the reverse-splicing fitness worked out at 0.0121. For the variant C82A A111G A120G A145G C150U C169G U176A, the reverse-splicing fitness was determined as 0.0157. Next, C82A A111G A120G A145G C150U C169G U176G: 0.00529; C82A A111G A120G A145G C150U C169G U176C: 0.0176.

For C82A A111G A120G A145G C150A C169A U176A, the reverse-splicing fitness was 0.0205. As for C82A A111G A120G A145G C150A C169A U176C, the reverse-splicing fitness was determined as 0.0218. Take C82A A111G A120G A145G C150A C169A U176G: the reverse-splicing fitness turned out to be 0.00687. The value for C82A A111G A120G A145U C150G C169U U176C was 0.0132; that for C82A A111G A120G A145U C150G C169U U176A was 0.012.

As to C82A A111G A120G A145U C150G C169U U176G, the reverse-splicing fitness is 0.00483. Next, C82A A111G A120G A145U C150A C169G U176A: 0.0145; C82A A111G A120G A145U C150A C169G U176C: 0.0169. Next, C82A A111G A120G A145U C150A C169G U176G: 0.00478; C82A A111G A120G A145U C169G U176A: 0.0122; C82A A111G A120G A145U C169G U176G: 0.00452. Next, C82A A111G A120G A145U C169G U176C: 0.0158; C82A A111G A120G A145G C150U U176C: 0.0182. On to C82A A111G A120G A145G C150U U176G, for which the reverse-splicing fitness came to 0.00788.

C82A A111G A120G A145G C150U U176A: the reverse-splicing fitness turned out to be 0.00945. The value for C82A A111G A120G A145U C150A U176A was 0.0117; that for C82A A111G A120G A145U C150A U176G was 0.00563; that for C82A A111G A120G A145U C150A U176C was 0.0154. Next, C82A A111G A120G A145U C150G C169A U176G: 0.00526; C82A A111G A120G A145U C150G C169A U176C: 0.0101; C82A A111G A120G A145U C150G C169A U176A: 0.00976.

Consider C82A A111G A120G C150A C169U U176A, for which the reverse-splicing fitness worked out at 0.0244. The value for C82A A111G A120G C150A C169U U176C was 0.0219; that for C82A A111G A120G C150A C169U U176G was 0.00838; that for C82A A111G A120G A145G C150G C169A U176G was 0.00875.

C82A A111G A120G A145G C150G C169A U176A: the reverse-splicing fitness is 0.0139. Next, C82A A111G A120G A145G C150G C169A U176C: 0.0131.
